These results are taken from patent US20180215801A1 (BOARD OF TRUSTEES OF MICHIGAN STATE UNIVERSITY, published 2018).

Test [1] deals with T1, ALK4-Fc (human ALK4 extracellular domain fused to human IgG1 Fc) (human, UniProt P36896 24-110).
T1 construct: range 1-110; Captured on an anti-human Fc chip in SPR; also called ALK4-hIgg-Fc; human ALK4-Fc
The test can be described thus: SPR (Biacore 2000), Fc fusion captured on anti-human Fc chip, ligand injected, 1:1 Langmuir fit. How it is done:
(§1) Receptor-ligand binding affinities were determined by SPR using the Biacore 2000. Anti-human IgG (Fc) antibody was immobilized onto four channels of a CM5 chip using amine coupling chemistry. […] A reference channel was monitored to account for nonspecific binding, drift, and bulk shifts. […] After each binding cycle, the antibody surface was regenerated to base line. All experiments were carried out at 25° C. HBS-EPS buffer (0.01 M HEPES, […], 3 mM EDTA, 0.005% (v/v) Tween 20, pH 7.4) containing 0.1% BSA was used as running buffer. […] Sensograms were analyzed by double referencing. To obtain kinetic rate constants, the processed data was fitted to 1:1 Langmuir interaction model with mass transport limitation using Scrubber, Clamp or BiaEvaluation software. The equilibrium binding constant Kd was determined by calculating the ratio of binding rate constants kd/kₐ.
On the technique in general: SPR reads the build-up and loss of mass on a sensor chip optically.

Test [2] addresses T2, Fc-free Cryptic (human Cryptic extracellular domain after removal of the Fc with TEV protease) (human, UniProt P0CG37 26-155).
T2 construct: Same conflict about the C-terminal limit as for Cryptic-Fc (155 vs 167)
Nature of the test: SPR competition: 1 nM Activin A preincubated with Fc-free Cryptic, binding to captured ACTRIIA-Fc is blocked. How it is done:
(§2) Receptor-ligand binding affinities were determined by SPR using the Biacore 2000. Anti-human IgG (Fc) antibody was immobilized onto four channels of a CM5 chip using amine coupling chemistry. […] A reference channel was monitored to account for nonspecific binding, drift, and bulk shifts.

Test [3] deals with T1, ALK4-Fc (human ALK4 extracellular …). The test can be described thus: SPR, ALK4-Fc captured, Activin A series preincubated with excess Fc-free Cryptic injected. How it is done: as §1
The target of test [4] is T2, Fc-free Cryptic (human Cryptic …). Nature of the test: SPR competition: 10 nM Activin B preincubated with Fc-free Cryptic, binding to captured ACTRIIA-Fc is blocked. How it is done:
as §2

T1 sequence (P36896 other isoform, or with tags, fused parts or gaps limits assumed, form in doubt): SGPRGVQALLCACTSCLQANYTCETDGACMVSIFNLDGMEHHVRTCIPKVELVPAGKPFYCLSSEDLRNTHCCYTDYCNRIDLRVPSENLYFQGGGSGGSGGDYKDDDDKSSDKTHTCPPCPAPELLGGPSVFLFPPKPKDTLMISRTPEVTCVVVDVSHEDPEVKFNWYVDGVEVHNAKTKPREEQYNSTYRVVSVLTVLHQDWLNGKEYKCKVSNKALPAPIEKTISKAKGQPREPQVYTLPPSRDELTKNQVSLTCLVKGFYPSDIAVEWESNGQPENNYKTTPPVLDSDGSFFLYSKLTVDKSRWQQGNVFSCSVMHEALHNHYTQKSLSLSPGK

B1: Activin A (ligand)
chain: GLECDGKVNICCKKQFFVSFKDIGWNDWIIAPSGYHANYCEGECPSHIAGTSGSSLSFHSTVINHYRMRGHSPFANLKSCCVPTKLRPMSMLYYDDGQNIIKKDIQNMIVEECGCS
notes: also called homodimer of inhibin beta A subunits
In test [1], B1 yielded a Kd of 4 nM, a koff of 0.0018 s⁻¹ and a kon of 450000 M⁻¹ s⁻¹. Moreover, in test [2], the binding result is recorded as “binds”.

B2: Activin A/Cryptic complex (Activin A preincubated with excess Fc-free Cryptic) (other)
chain 1: GLECDGKVNICCKKQFFVSFKDIGWNDWIIAPSGYHANYCEGECPSHIAGTSGSSLSFHSTVINHYRMRGHSPFANLKSCCVPTKLRPMSMLYYDDGQNIIKKDIQNMIVEECGCS
chain 2: not shown
In test [3], B2 returned a Kd of 2.6 nM, a koff of 0.0016 s⁻¹ and a kon of 620000 M⁻¹ s⁻¹.

B3: Activin B (ligand, UniProt P09529 293-407, looked up)
chain: GLECDGRTNLCCRQQFFIDFRLIGWNDWIIAPTGYYGNYCEGSCPAYLAGVPGSASSFHTAVVNQYRMRGLNPGTVNSCCIPTKLSTMSMLYFDDEYNIVKRDVPNMIVEECGCA
notes: also called recombinant Activin B
Take B3: the binding result in test [4] was “binds”.

A word on the Kd: it is a measure of binding affinity in units of concentration. A high value points to a looser complex. Broadly, the koff is a measure of how fast the partners let go of each other. A high value points to a short-lived complex. One may read the kon as a measure of how fast the partners come together.
